Experimental data as given in IntAct's records for PubMed 22745600.
Values belong to the substance of their own block, whether it stands above or below them.

How the values were obtained:
pbx1_mouse Pbx1 = pbx1_mouse Pbx1 (UniProt P41778)
exd_drome exd [1] = target: exd_drome exd (UniProt P40427)
exd_drome exd [2] = target: exd_drome exd (UniProt P40427); remark: listed apart in the source
exd_drome exd [3] = target: exd_drome exd (UniProt P40427); remark: listed apart in the source

Sequence of exd_drome exd (P40427 whole entry): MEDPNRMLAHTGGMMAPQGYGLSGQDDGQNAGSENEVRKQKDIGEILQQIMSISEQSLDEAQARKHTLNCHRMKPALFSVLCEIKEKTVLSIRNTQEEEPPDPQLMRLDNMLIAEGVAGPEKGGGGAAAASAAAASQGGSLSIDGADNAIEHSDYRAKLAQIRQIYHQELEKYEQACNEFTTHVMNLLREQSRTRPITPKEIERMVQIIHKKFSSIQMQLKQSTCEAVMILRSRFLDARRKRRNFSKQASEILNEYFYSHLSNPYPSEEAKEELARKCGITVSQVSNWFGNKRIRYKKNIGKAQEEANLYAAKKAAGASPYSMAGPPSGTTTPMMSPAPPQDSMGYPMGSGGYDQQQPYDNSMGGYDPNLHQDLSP
Sequence of Homeotic protein ultrabithorax (Drosophila melanogaster (Fruit fly)), P83949 K358A;E359A;N361A;E362A;Q363A (P83949 whole entry K358A/E359A/N361A/E362A/Q363A): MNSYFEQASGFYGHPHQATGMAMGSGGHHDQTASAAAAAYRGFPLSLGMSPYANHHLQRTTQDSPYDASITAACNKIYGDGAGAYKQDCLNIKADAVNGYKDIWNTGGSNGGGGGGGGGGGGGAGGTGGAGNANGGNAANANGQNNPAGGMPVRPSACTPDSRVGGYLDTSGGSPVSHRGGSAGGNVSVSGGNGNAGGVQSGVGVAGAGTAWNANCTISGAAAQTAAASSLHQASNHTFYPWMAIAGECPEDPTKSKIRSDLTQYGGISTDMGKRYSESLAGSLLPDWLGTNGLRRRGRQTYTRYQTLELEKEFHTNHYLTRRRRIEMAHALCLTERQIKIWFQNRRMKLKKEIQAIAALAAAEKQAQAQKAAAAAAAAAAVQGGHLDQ
Sequence of Homeobox protein abdominal-A (Drosophila melanogaster (Fruit fly)), P29555 T375A;D376A;W377A (P29555 whole entry T375A/D376A/W377A): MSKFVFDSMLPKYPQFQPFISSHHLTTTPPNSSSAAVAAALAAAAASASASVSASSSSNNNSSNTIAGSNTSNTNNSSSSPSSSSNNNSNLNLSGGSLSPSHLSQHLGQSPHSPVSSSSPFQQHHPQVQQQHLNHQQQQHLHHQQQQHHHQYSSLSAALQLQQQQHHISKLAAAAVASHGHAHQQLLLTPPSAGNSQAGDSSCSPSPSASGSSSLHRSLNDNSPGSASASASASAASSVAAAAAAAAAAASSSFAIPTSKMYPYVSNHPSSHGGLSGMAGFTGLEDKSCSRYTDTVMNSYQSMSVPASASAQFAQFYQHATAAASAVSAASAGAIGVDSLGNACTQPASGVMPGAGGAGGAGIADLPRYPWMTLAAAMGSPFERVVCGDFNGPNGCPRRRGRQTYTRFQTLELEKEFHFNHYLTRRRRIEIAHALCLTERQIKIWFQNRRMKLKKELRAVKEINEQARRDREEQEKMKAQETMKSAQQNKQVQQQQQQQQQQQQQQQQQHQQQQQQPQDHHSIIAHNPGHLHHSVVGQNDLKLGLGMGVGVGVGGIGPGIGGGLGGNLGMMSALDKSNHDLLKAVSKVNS
Sequence of Homeotic protein labial (Drosophila melanogaster (Fruit fly)), P10105 K393A;W394A;M395A (P10105 other isoform, or with tags, fused parts or gaps K393A;W394A;M395A): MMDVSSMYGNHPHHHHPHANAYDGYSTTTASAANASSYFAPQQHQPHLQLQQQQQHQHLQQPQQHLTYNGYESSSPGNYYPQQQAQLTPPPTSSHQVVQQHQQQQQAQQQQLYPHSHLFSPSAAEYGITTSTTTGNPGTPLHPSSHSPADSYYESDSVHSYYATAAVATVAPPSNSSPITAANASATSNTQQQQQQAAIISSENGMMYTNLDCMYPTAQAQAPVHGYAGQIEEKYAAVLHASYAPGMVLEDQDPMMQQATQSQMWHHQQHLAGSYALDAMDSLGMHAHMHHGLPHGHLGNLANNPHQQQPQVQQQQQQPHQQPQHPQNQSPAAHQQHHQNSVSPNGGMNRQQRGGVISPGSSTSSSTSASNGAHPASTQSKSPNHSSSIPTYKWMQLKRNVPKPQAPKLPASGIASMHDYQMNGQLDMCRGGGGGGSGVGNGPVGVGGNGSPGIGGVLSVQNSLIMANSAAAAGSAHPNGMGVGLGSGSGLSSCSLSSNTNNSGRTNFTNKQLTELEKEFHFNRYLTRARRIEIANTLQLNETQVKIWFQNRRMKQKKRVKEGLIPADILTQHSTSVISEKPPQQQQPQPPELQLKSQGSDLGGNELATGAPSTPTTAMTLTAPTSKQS
Sequence of Homeobox protein Hox-B8 (Mus musculus), P09632 W137A;M138A (P09632 whole entry W137A/M138A): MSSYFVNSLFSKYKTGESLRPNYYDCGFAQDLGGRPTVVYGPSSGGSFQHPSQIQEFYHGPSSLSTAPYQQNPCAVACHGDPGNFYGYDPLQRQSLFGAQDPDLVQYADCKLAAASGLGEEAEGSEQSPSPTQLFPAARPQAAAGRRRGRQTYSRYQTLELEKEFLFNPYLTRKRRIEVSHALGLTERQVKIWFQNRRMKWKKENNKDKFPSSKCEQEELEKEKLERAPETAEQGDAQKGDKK
Sequence of pbx1_mouse Pbx1 (P41778 whole entry): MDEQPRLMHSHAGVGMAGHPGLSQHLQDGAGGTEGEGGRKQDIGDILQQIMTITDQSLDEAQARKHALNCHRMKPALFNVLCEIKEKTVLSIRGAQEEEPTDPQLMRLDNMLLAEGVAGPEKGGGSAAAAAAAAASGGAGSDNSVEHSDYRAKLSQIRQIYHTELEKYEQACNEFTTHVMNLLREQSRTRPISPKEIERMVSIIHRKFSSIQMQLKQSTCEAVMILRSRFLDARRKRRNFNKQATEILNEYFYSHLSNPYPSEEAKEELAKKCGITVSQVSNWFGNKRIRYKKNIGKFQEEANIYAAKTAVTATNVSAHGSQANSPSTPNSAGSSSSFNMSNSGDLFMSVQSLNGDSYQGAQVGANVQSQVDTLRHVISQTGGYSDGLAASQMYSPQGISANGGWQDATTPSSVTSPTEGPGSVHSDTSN
Sequence of Homeobox protein abdominal-A (Drosophila melanogaster (Fruit fly)), P29555 E462A;I463A;N464A;E465A (P29555 whole entry E462A/I463A/N464A/E465A): as the sequence (P29555 whole entry T375A/D376A/W377A) above, with A375T, A376D, A377W, E462A, I463A, N464A, E465A counted along it

Substance: Homeobox protein abdominal-A (Drosophila melanogaster (Fruit fly)), P29555 E462A;I463A;N464A;E465A
- effect of a mutation on the interaction (exd_drome exd [1]): decreasing interaction strength

Substance: Homeotic protein labial (Drosophila melanogaster (Fruit fly)), P10105 K393A;W394A;M395A
- effect of a mutation on the interaction (exd_drome exd [2]): decreasing interaction strength

Substance: Homeotic protein ultrabithorax (Drosophila melanogaster (Fruit fly)), P83949 K358A;E359A;N361A;E362A;Q363A
- effect of a mutation on the interaction (exd_drome exd [3]): decreasing interaction strength

Next, values leading:

- effect of a mutation on the interaction (pbx1_mouse Pbx1): decreasing interaction strength
Substance: Homeobox protein Hox-B8 (Mus musculus), P09632 W137A;M138A

- effect of a mutation on the interaction (exd_drome exd [1]): decreasing interaction strength
Substance: Homeobox protein abdominal-A (Drosophila melanogaster (Fruit fly)), P29555 T375A;D376A;W377A
